For data set [1] the following is noted: literature values for Fet3p ferroxidases, cited from earlier work; for Km: read-out: Fe(II) KM.
Substrate in data set [2]: COc1cccc(OC)c1O
Nature of the data set: purified protein, by the assay type. Format: biochemical, Bacillus sp. PL-12. Conditions: other: 2,6-DMP, pH 8, HEPES, 22° C., 468 nm, Michaelis-Menten, pH 8.0. On the procedure:
(§1) FIG. 8B is a plot showing the initial oxidation velocity of DMP plotted against initial substrate concentration in a reaction catalyzed by the recombinant Mn oxidase complex. […]
(§2) All plots in FIGS. 8A, 8B, and 8C were fitted with either Michaelis-Menten or allosteric sigmoidal functions as appropriate.
(§3) Kinetic experiments were performed on the Molecular Devices SpectraMax® M2 microplate reader spectrophotometer at 22° C. with purified protein. […] Reactions were carried out with 10 μg Mnx (final 240 nM) 100 mM in phosphate-citrate buffer pH 3-8 and 20 mM CHES, HEPES, and MES at pH 7-10. […] These assays were performed in at least two independent trials in triplicate. Fe(II) (ferrous ammonium sulfate) oxidation was measured by quenching 200 μl reactions with 50 μl of the Fe(II) chelating colorimetric assay FerroZine® (15 mM) and a ferrous ammonium sulfate standard curve, noting the absorbance at 570 nm. Fe(II) oxidation reactions were performed with 10 μg recombinant Mn oxidase complex in 100 mM Na acetate-acetic acid buffer (pH 4-5.5). Mn(II) (MnCl2) oxidation in 20 mM HEPES (pH 7-8.5) was measured by quenching 5 μl of 200 μl reactions with 195 μl leucoberbelin blue (LBB) colorimetric reagent and reading the absorbance at 618 nm. Working LBB reagent was prepared by diluting concentrated stock (100 mg LBB in 25 ml 0.4% NaOH) 1:10 into 1% acetic acid. A KMnO4 standard curve was used to determine MnO2 oxide equivalent concentration. The metal substrate assays were performed in five independent trials then the high and low values were discarded from each concentration. The linear part of each curve was fit plotted and fit with a linear regression in GraphPad Prism®. These slopes were converted to the appropriate kinetic units, plotted, and fit with nonlinear regressions determined by comparing best fit values in the same software. KM and Vmax were determined and reported as KM and kcat=Vmax/[enzyme].

Substrate in data set [3]: CCn1c(=NN=c2sc3cc(S(=O)(=O)O)ccc3n2CC)sc2cc(S(=O)(=O)O)ccc21
Nature of the data set: purified protein, by the assay type. In kind it is biochemical, Bacillus sp. PL-12. As to conditions: other: ABTS, 22° C., 420 nm. On the procedure:
as §1, §2, §3

[4] abbreviates: pH 4.5, phosphate-citrate buffer, Michaelis-Menten, pH 4.5.
[5] abbreviates: pH 8, HEPES, allosteric sigmoidal function, pH 8.0.

B1: Fet3p C. albicans: ferroxidase Fet3p from Candida albicans, described in Ziegler et al 2011 (protein, UniProt P78591 21-624, looked up)
Iron transport multicopper …: AETHTWYFKTGWVDANPDGVYPRKMIGFNDSWPLPTLRVKKGDRVQLYLINGFDNLNTTLHFHGLFVRGANQMDGPEMVTQCPIPPGETYLYNFTVTDQVGTYWYHSHTGGQYGDGMRGVFIIEDDDFPYHYDEEVVLTLSDHYHKYSGDIGPAFLTRFNPTGAEPIPQNFLFNETRNATWKVEPGKTYFVRILNVGGFVSQYLWMEDHEFTIVEIDGVYVEKNTTDLIYITVAQRYGVLITTKNSTDKNYVFMNGVDTTMLDSVPADLQVNGTNYIVYNESSALPDAYDIDSYDDALDDFYLKPLSKQKLMDDADYTITVDVQMNVLNDGINYAFFNNISYKAPKVPTLLTVLSAGEAATNELIYGTNTNSFVLQGGDIVDIVLNNFDTGKHPFHLHGHVFQLIERHEAIGSKESAVTFNVSDHAEWPEYPMIRDTVYVKPHSYMVLRFKADNPVVWFFHCHVDWHLEQGLAVVLIEDPQAIQKNEKITENHKRICEKVGVPWEGNAAANSNDYLDLKGENVQVKRLPTGFTTKGIVALVFSCVAAFLGLFSFSFYGMNDIAHVEDKVARDLDIDLEAENEDEEEAVVLNQNSSSSDSNSKPH
On to B1, for which, in data set [1], the “Fe(II) kcat” value was 1.06 ± 0.02 s⁻¹ and the Km was 7.9 ± 0.5 µM.

B2: Fet3p S. cerevisiae: ferroxidase Fet3p from Saccharomyces cerevisiae, described in Stoj et al 2006 (protein, UniProt P38993 22-636, looked up)
Iron transport multicopper …: ETHTFNWTTGWDYRNVDGLKSRPVITCNGQFPWPDITVNKGDRVQIYLTNGMNNTNTSMHFHGLFQNGTASMDGVPFLTQCPIAPGSTMLYNFTVDYNVGTYWYHSHTDGQYEDGMKGLFIIKDDSFPYDYDEELSLSLSEWYHDLVTDLTKSFMSVYNPTGAEPIPQNLIVNNTMNLTWEVQPDTTYLLRIVNVGGFVSQYFWIEDHEMTVVEIDGITTEKNVTDMLYITVAQRYTVLVHTKNDTDKNFAIMQKFDDTMLDVIPSDLQLNATSYMVYNKTAALPTQNYVDSIDNFLDDFYLQPYEKEAIYGEPDHVITVDVVMDNLKNGVNYAFFNNITYTAPKVPTLMTVLSSGDQANNSEIYGSNTHTFILEKDEIVEIVLNNQDTGTHPFHLHGHAFQTIQRDRTYDDALGEVPHSFDPDNHPAFPEYPMRRDTLYVRPQSNFVIRFKADNPGVWFFHCHIEWHLLQGLGLVLVEDPFGIQDAHSQQLSENHLEVCQSCSVATEGNAAANTLDLTDLTGENVQHAFIPTGFTKKGIIAMTFSCFAGILGIITIAIYGMMDMEDATEKVIRDLHVDPEVLLNEVDENEERQVNEDRHSTEKHQFLTKAKRFF
On to B2, for which, in data set [1], the “Fe(II) kcat” value was 0.835 ± 0.023 s⁻¹ and the Km is 4.9 ± 0.8 µM.

B3: recombinant Bacillus sp. PL-12 Mn oxidase complex (Mnx; MnxE3F3G), MnxG (SEQ ID NO: 7), MnxE (SEQ ID NO: 5) and MnxF (SEQ ID NO: 6) (Bacillus sp. PL-12) (protein)
chain: MLRKFHVVGISTRIVVNTFGDHNPNGRIYVLKENESKLKDLVRKNPYKPIDLVQPLAIRANEGDIVEILFENQLSFSAGMHFQEADYSVLSSDGADAGYNPDTTVEPGGEILYRLNVNQEGICFFTDLGNVSSTEQGSSVQGLFGALLVQKRGSSWTDPVTGGPINSGVYADIHHPFLPSFREYAWFFNDEMEIRDLTGERPLNPMTNQEAESFHGVNLRYEPMTNRKRLMEAGVVCPDCDSEEVHHDSWVFGDPATPILRGYVGDPAVIRLIHGGVKETHVFHYHVHQWLGDSSNINAEILDAQSISPQTHYSIQPLYGLGSLHGAIGDSIIHCHLYPHFGIGMWGMNRVFDTLQDGSQCYPNGVRIKALMPLPDRPEPPKPTPEKPGFPNFIPGKVGYKAPRPPLGIVGGREMTELERNAAIENPRPGAVFVDPCLDQDPVVVEFNVSAIEMPVVYNKQGWHDPKARFYVMDEDLDDILSGKKEPEPLVFHVPAGTCIRMNYTNRMPHILDGDAFQLVTRTYENGFHIHFVKFDVLACDGGNVGWNYDSAVLPGQTIRYEWYAETELKAFFFHDHLFANSHQQHGVFGAGVIQPRFSKFLDSRTGDEVDHGTQISVEHPLIPDYRDQTLFVHDFALLFDKNGRPIQPPEYPGSEDDPGVFGVNFKCEPLKFRLGEDCDPAYSFSSYVHGDPVTPILRAYEGDPIRIRLLQGAHEESHSFNIHGLRWKEERPDLGSSMKAQQHIGISESFTFETEIPASGDYLWAFEDEEDVWLGTWGLIRAYKGRMEDLIVLTDREALPEGSAETPKPTGKPPEKANPLASLPPGAYQGSPVKKFEVVAFQTPIQYNSYGDHDPYGIIFALKEDVEDILTGKKNPVPLILRANVGDLVEVTLTSELKKELFPFQDGIHPYPPVKEQSFYPPSLRISLHTSLLNYDVKTSSGDTVGYNPDQTVGPGETITYRWFVDGQFGMCSMWDMADLRNHRSFGTFGAFVAESRFTTYLDPYSLEKAITGENVILRHPLLPATREFVLILHDGVRLEDKDGKVIIDPMDGVVPDTEELEEVDTYDYGSRGFNYRSERLINRYKEHPVMHELFSSEVFGDPATPLFEAYPGEPVVMRITTPAERRRAHTFHLHGHYWKFDSKDLDSRIQSFLGHMVTGHTDDLRLIGGAGGVFNFPGDYLYRSGNIRWDIELGMWGIFRVHKDSKENLPRLEEVEGGWDNEEKA
notes: Cu-loaded; purified ~230 kDa complex of MnxG, MnxE and MnxF; MnxD not found by MS
For the molecule B3, the values for the Michaelis-Menten constant (Km) in data set [2], in data set [3] (setting [4]) and in data set [3] (setting [5]) were 576 ± 163 µM, 456 ± 23.3 µM and 3126 ± 391 µM, respectively. Besides, the values for the kcat in data set [3] (setting [4]) and in data set [3] (setting [5]) were 0.206 ± 0.0136 s⁻¹ and 0.0595 ± 0.00891 s⁻¹, respectively.

These data come from patent publication US9631180B2, “Recombinant manganese oxidase” (OREGON HEALTH & SCIENCE UNIVERSITY, priority 2013, dated 2017).
